In a protein production outcome set (Wang et al. 2014):

Test: label from the status in PepcDB records

Sequence | protein production
MFFKEIHHVAINASNYQATKNFYVEKLGFEVLRENHRPEKNDIKLDLKLGSQELEIFISDQFPARPSYPEALGLRHLAFKVEHIEEVIAFLNEQGIETEPLRVDDFTGKKMTFFFDPDGLPLELHE | not failed
MRELLVFLHILSAATWIGAALWVPGDVKRTVALGRPFVEQLAARARPALKLDLYAGFAVLVTGVLLIGVDGGHPRTGILVGFAATLARLLVVGFASMPAWRRVEGAVASGDLAAATAPARRLAMLGGIGHALWAIALAGMVF | failed
MKNEVFFGEGMKVVAAAYPDLYDIIVKLNDTVFTGKTLDYKTQKLIAIGIVASRCDEVAIEKQMKSAMKELGITKEEIADVLRVVLLTSGMPAFTKAMKILEKL | not failed
MLGKSQKDDHKTTFNKHKKTFSIIVAIKDESKQVIESLVENLKRINYERYEVIIVSDDDESKFREYLEIKFPENFRLIRRESNSGGKAGALNFASRISKGDYLVFMDADARVNEDFLQRLNNKDYVACSLKIIIYDTSTSIQSYYAEFTEKVMDMMFKGRSKLGLPIFPNGSAFSIRRDTLLSIGGWKENAIAEDLELGIRMYLNDLKNLFYDDVVVFLKSPYTLMDLYNQIQRWSYGSSQLLKSSLKLLKKGIKGFEGLLYSQQWVIYPLFFTVLGVYGILTPVFNITQTYLLLLILIYGISVVFYSQVLNQKRVDIKILKTILDASITGYLKGLFGLKYKWRVTPKILDKGGRLIEDNNIPLISIPFYLISFFDASMGFVLSSIVILLVALIESF | failed
MKVLVFICGEGLGHTSRGIALGRELLAAGHEVYLGAYGYSKEFIERKGYKTVEIPPEIKLVGESGSLNLKRSIISTLKGGNVFGIFKVLSLLKEKKPDIVVSDSYFTGVVASKIRGIPVYLIVNQSNMETFFKNGGIALRTMGGIIKQFYSCIFRRVDRIVIPDFPMPYTVCRLNLAFEEKVSKNLFFSGPLTLKKFDDVKAEVLQKPHVLSLIGGFGYREPIFRKVIEVAKLDKSINYTLLSGPSLNPDVFSNLPENVTIKRFINDQFPYLKASDLVIAPGGHSTIMEALTFGVPVLSFPDINHSEQESNATVVDLAGYGKRLDYSASPEEILRSIKELLKDEKIHQKVEIMKKLSKDLNATATFKELLESNSKRSQKV | failed
MEDVKGKEIIDDAPIDNKVSDEMESEENAIKKKYGGLLPKKIPLISKDHERAFFDSADWALGKQKGQKPKGPLEALRPKLQPTPQQQPRARRMAYSSGETEDTEIDNNEAPDDQACASAVDSTNLKDDGGAKDNIKS | failed
MNKTFVGFIFLLFLVGGVVSCQRSSSPYPYSLRYADSLMEISPERTLAYLRKLDVSTYSAGDRAYFSLLFTQATDKNMLSLLPCDSLIDTALDYYIKKDGVNWAKAWLYKGRIQKKMNMTEQALKSCFTALQGVEGNTGEELKLKGMLYEDMGSIYLHQSLYQKAFDAFYRSYQCDSLLNDHRLVMYPLSNMGWVRVIQGKTVEAFYYLNQSIQLALRLNDSAFVSDIYERMSLNCENVDSAFLYAHLSHQYLTKDGDSISLWLTFGDLYLDKQELDSAEYYLKRILDTADFKRKILASYSLAEVEKIRGNYQRAFEYQSYYGDNIDSIFLLNKASDIERLAYKYDSEAKVVKEKEKQRFLIQQLCYGGVLFLLVIVVIFQRVYRRRQIARLLYEQRITYLNEKTALSQLQIERLEVQISALKQSGMEREQEIDLKQAELCCVIDEKARLRNCLFMETSIFKHIRELSTQPRLGQNGTKGSPKVLLMKEQEQLKNILFGIYDDYIRYLKGTYPKITDNDCIYCCLKLCEFDDQTIAYCFGNVSKQIVAQRRLRLKKKMAEAN | failed
MLTGRRYLLAFTPEQEEFAEKIGDACRVVWNTALEQRRQYRRRGAFIGYVEQARQMAEAKKDFPWLAEAPSHTLQQTLRDLERACKTHGTFKVRWRSKRKNAPTFRFPDPKQITVERISRRWGRVKLPKLGWTRFRWTRPLGGQLRNATVLKDGGRWYISFCVEDGLMESAPNGKPPVGVDRGVTVAVATSSGWMRDREFVTPGEAVRLKRLQQQLARQRKGSNRRAATRAKLTKLNARIRARRTDFLAWTANRLTCDHGLVVVEDLNIRNMTASAKGTLAEPGRNVAAKAGLNRAILAKGWGGLLTALEHKARYHGSRILRVPPAFTSQTCHACGHCAPDNRESQAEFRCRACGHQANADVNAAKNILAAGLAVTGRGDLAVGRSVKRQPPKVEAA | failed
MRACAPIFRLLGGGVEHLGKSGRPGSGGRWWPLCGWLALAALVPAVQAEEGEPAPVEASAAARLVDVNEYFVRGNTVLDARAIEEAVYPFLGPQKALADIEGARDALQKVYQERGYQSVFVELPEQKVEDGIVYLQVSETKVGRVRVVGAKHYSPVEIRDQVPALKEGEVPDFATVQSQLAGLNRGAGRQVMPLVREGQRPGTMDVDLQVEDQNPWHASVGLNNDYSADTEKLRTVVNVGYDNLWQLGHSISLTYFTAPQDTDNAKVWSGSYTAPLSDRWALQFSGYQSDSNIATIGGSNVLGKGHSYGVSAIYTLPAAGNWANSLSVGVDFKDFEEEMRFGRSSDQIPLKYAPMTFGYNGYRYSEKAQLGLGLNLIVGTRRFFGYGSDAEEFHYKRDEASASFSVLKGDLNFTYTFANDWQSASKAAFQLASGPLVSNEQYSAGGATSVRGYLAAERTGDEGYLFSQELRTPSLAKFLGSYVQEWRFYAFAEGAHLSLHDPLPEQEDEYSLASVGLGTRASLSKWLSGSLDWGYPLKDGPNTQKYDPRLHFSVQATF | failed
MAGASVAATTLKGDTSLLAGGAIRGAINAFGKDKKLKTQLASSGKLYGKYAKAASKIENLVLGGENISLVVDPP | failed
KNRIGTKALNFTYTLASGAQGSLYQLKAEYLLLFINNPGCQACTETIEGLKNAPIINQLLQEKKLVLLSIYPDEELDEWKKHLSEFPNEWINGYDKKFTIKEEQVYDLKAIPTLYLLDKDKTVLLKDATAPAIEAYLMQH | not failed
MLKSGETNGVQSNVVRASSRMRGLAEPGIKDNQGRTWRRLIVTDCFISTKVWYSLYKGTLEATRKRVSDYISDLTMVEIIGLQAFTTDGGIAS | failed
VFGVKEWECEVLSNKNVSTFIKEFVVKLPEGETMNFKSGSYAQIKIPKYNIRYADYDIQDRFRGDWDKMDAWSLTCKNEEETVRAYSMANYPAEGNIITLNVRIATPPFDRAANKWKAGIKPGISSSYIFSLKPGDKVMMSGPYGDFHIQDTDAEMLYIGGGAGMAPLRAQILHLFRTLKTGRKVSYWYGARSKNEIFYEEDFREIEREFPNFKFHIALSDPQPEDNWTGYVGFIHQVIYDNYLKDHDAPEDIEYYMCGPGPMANAVKGMLENLGVPRNMLFFDDFG | not failed
MSQPEPRAGENRALRAFAPDAGLFLLKPWIGGLALLADWGLIAAAFACAALWPHPVIYLLAALLIARSQLALAVLMHESAHGLLLRGQKANDRLGQWLAAGPLFLSLCTYRAGHLKHHLHPMEHDDPVVAVFGLGDYPLPRGKLALRLLADLCGVGYFISALRFARGDYRAIMPRVDKSPRQALAQVLSMLVSNGLLFGLLAWSGHPWLYLGLWLLPAITLLPLLGRVRAIMEHAGLPVAADQSRNARSIVRPSVQTFLFGPHAIHYHIEHHLYVRVPFYHLGGLHRQLATAQLLPEGNLYQGYGGVLRDVSDPDWRSSAR | failed
MASISATLYELCEAVDHPVPTRDRDVEAVFAEIEFDAIEFCPIEFVILPIGDWLDIFGDKIVLSEPFESAVDCRLRDPGAVAELCRRARLLFRLDENRARTLVTEQVCECFRISHVGHCKRAISWFVNIGCAVLGFLSGFSQRSHKKLPSISALTFRVRMSNRQTRTPTSVLLPTVSWTAACDDVAAQLGPEDELLIIHDSKDDPVVDRKPLSENVQFIPAGDPVGCSGKANAIAAGMEAANHDRLVWTDDDFHHPPDWLDRLHKDYAEYGPTTELPAFVGQDPLAVLLEPVYVLGGTLGTYMGDHAWGGAVIFDRSALDEERFLSELRQTISDDGLLGEHISVTSVQRVRRVPMGGSLRQTLERHIRFNQIFSTHDPTVAKLSFGVLVAVLIGCVFFPLLAVVLTVLTAGVSASFGVRRASLLLTVPALVAAVPLGLYAFARDTFVWGGRRYRWHSKFDVEVLNE | failed
MDPRQFEHTVVADNDIHSIVMSYLLHNCFNETADSLASSTGVKQPAIDRDNMERRKQIIHFILERKALKAFELTEQLAQDLLEKNKDLQFDLLCLHFVELICAGNCTEALKFGKTRLAPFGKVKKYVEKLEDVMALLAYEDPEKSPMFHLLSSEYRQQVADNLNRTILEHTNHPSYTPMERIIQQVTVVRQYLTEENGKDAFPPFSLKDSLKG | failed
MGACVCRMNPDNETMSVSSASISRPASAGIAMGAARKNRPLCHETIRWRSDVPLTEGQLRSKRDEFWDTAPAFDGRKEIWDALRAATTAAEGLDFQMAQAILDGANVSVPNGYLTECYDELGTQYKVPIYCLSYPINIVKEENGRDSPAEYSEPVDGGTDIFLKLRISSTMTDVKLPVYSKDTVGQCKKKLQAAEGVDACCQRWFYSGKLLGDKVPIDECSIHQGYVVQVIVNTEHYNHDNSTSTAHAS | failed
AGNRASNQGNSQPQQKYTVMSGTPEKILEHFLETIRLEATLNEATDSVLNDFIMMHCVFMPNTQLCPALVAHYHAQPSQGTEQEKMDYALNNKRRVIRLVLQWAAMYGDLLQEDDVSMAFLEEFYVSVSDDARM | failed
